Target: NTH-RNase E D346N (Escherichia coli (K12, P21513-1 in …, UniProt P21513 1-529, D346N))
Test: EMSA; 15 mM CaCl2; 25 mM bis-Tris propane pH 8.3, 100 mM KCl, 15 mM CaCl2, 0.1% (v/v) Triton X-100, 1 mM DTT, 20% (v/v) glycerol, 37 C 20 min; 1% agarose gel in 1x TBE
Conditions: protein: recombinant; tags: N-terminal oligohistidine; chain copies: 4; single-stranded

Question: For GAGACAGUAUUUG (ssRNA, 5'-monophosphate) [5'-monophosphorylated LU13], which Kd is on record?
Answer: 56 nM
